These results are taken from patent publication US20230357348A1 (AstraZeneca / MedImmune, published 2023).

Starred links: 1 amine or outer side, 2 acyl side, 3 side chain; linkers in the order of their positions; H or OH if unused. Non-standard residues stand in square brackets, D forms with d. Groups on a side chain read outwards from the residue. No end group written: not given here. *: point of attachment. PEG12 = NCCOCCOCCOCCOCCOCCOCCOCCOCCOCCOCCOCCOCCC(=O)O; C18 diacid = O=C(O)CCCCCCCCCCCCCCCCC(=O)*; PEG8 = NCCOCCOCCOCCOCCOCCOCCOCCOCCC(=O)O; Dip = N[C@H](C(=O)O)C(c1ccccc1)c1ccccc1; γGlu = O=C(O)[C@H](CCC(=O)[*:2])N[*:1]; Stearoyl = CCCCCCCCCCCCCCCCCC(=O)*; Palmitoyl = CCCCCCCCCCCCCCCC(=O)*; αMeF = C[C@](N)(Cc1ccccc1)C(=O)O; (PEG)2 = polyethylene glycol 2; PEG4 = NCCOCCOCCOCCOCCC(=O)O; Dodecyl = CCCCCCCCCCCC*; Aib = CC(C)(N)C(=O)O

The target in experiment [1] is human glucagon receptor (hGCGR) (human, UniProt P47871 26-477). Description: cell-based or functional assay.
Experiment [2] deals with human GLP-1 receptor (hGLP-1R) (human, UniProt P43220 24-463). Briefly: cell-based or functional assay.

human glucagon receptor (hGCGR), sequence (P47871 26-477): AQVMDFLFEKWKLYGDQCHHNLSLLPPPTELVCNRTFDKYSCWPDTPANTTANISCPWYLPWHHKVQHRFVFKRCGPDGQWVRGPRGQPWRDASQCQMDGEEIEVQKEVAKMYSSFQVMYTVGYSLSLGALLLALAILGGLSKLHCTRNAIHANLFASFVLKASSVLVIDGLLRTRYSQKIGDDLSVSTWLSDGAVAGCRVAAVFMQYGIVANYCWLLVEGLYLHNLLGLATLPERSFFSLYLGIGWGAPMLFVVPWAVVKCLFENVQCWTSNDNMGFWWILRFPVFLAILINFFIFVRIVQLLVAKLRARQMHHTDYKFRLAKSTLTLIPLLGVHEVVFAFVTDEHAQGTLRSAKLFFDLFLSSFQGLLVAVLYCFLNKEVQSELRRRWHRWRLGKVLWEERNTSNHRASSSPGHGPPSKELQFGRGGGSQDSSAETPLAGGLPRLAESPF

B1: Peptide 72 (peptide)
peptide: H[Aib]QGS[αMeF]TSDVSK[αMeF]LDSK([PEG4-γGlu-γGlu-Palmitoyl])AAQD[αMeF]VE[Aib]LEAGG-NH2
modifications: N-terminus assumed
SMILES: CCCCCCCCCCCCCCCC(=O)N[C@@H](CCC(=O)N[C@@H](CCC(=O)NCCOCCOCCOCCOCCC(=O)NCCCC[C@H](NC(=O)[C@H](CO)NC(=O)[C@H](CC(=O)O)NC(=O)[C@H](CC(C)C)NC(=O)[C@](C)(Cc1ccccc1)NC(=O)[C@H](CCCCN)NC(=O)[C@H](CO)NC(=O)[C@@H](NC(=O)[C@H](CC(=O)O)NC(=O)[C@H](CO)NC(=O)[C@@H](NC(=O)[C@](C)(Cc1ccccc1)NC(=O)[C@H](CO)NC(=O)CNC(=O)[C@H](CCC(N)=O)NC(=O)C(C)(C)NC(=O)[C@@H](N)Cc1c[nH]cn1)[C@@H](C)O)C(C)C)C(=O)N[C@@H](C)C(=O)N[C@@H](C)C(=O)N[C@@H](CCC(N)=O)C(=O)N[C@@H](CC(=O)O)C(=O)N[C@@](C)(Cc1ccccc1)C(=O)N[C@H](C(=O)N[C@@H](CCC(=O)O)C(=O)NC(C)(C)C(=O)N[C@@H](CC(C)C)C(=O)N[C@@H](CCC(=O)O)C(=O)N[C@@H](C)C(=O)NCC(=O)NCC(N)=O)C(C)C)C(=O)O)C(=O)O
With B1, the “hGluc-R EC50 (pM)” value in experiment [1] was determined as 73.7 pM. Besides, the “hGLP-1R EC50 (pM)” value in experiment [2] was 3.42 pM.

B2: Peptide 58 (peptide)
peptide: HSQGS[αMeF]TSDVSK[Dip]LDSK([PEG12-γGlu-γGlu-Stearoyl])AAQD[αMeF]VE[Aib]IINT-NH2
modifications: N-terminus assumed
SMILES: CCCCCCCCCCCCCCCCCC(=O)N[C@@H](CCC(=O)N[C@@H](CCC(=O)NCCOCCOCCOCCOCCOCCOCCOCCOCCOCCOCCOCCOCCC(=O)NCCCC[C@H](NC(=O)[C@H](CO)NC(=O)[C@H](CC(=O)O)NC(=O)[C@H](CC(C)C)NC(=O)[C@@H](NC(=O)[C@H](CCCCN)NC(=O)[C@H](CO)NC(=O)[C@@H](NC(=O)[C@H](CC(=O)O)NC(=O)[C@H](CO)NC(=O)[C@@H](NC(=O)[C@](C)(Cc1ccccc1)NC(=O)[C@H](CO)NC(=O)CNC(=O)[C@H](CCC(N)=O)NC(=O)[C@H](CO)NC(=O)[C@@H](N)Cc1c[nH]cn1)[C@@H](C)O)C(C)C)C(c1ccccc1)c1ccccc1)C(=O)N[C@@H](C)C(=O)N[C@@H](C)C(=O)N[C@@H](CCC(N)=O)C(=O)N[C@@H](CC(=O)O)C(=O)N[C@@](C)(Cc1ccccc1)C(=O)N[C@H](C(=O)N[C@@H](CCC(=O)O)C(=O)NC(C)(C)C(=O)N[C@H](C(=O)N[C@H](C(=O)N[C@@H](CC(N)=O)C(=O)N[C@H](C(N)=O)[C@@H](C)O)[C@@H](C)CC)[C@@H](C)CC)C(C)C)C(=O)O)C(=O)O
Regarding B2, in experiment [1], the “hGluc-R EC50 (pM)” value turned out to be 11.3 pM. In experiment [2], the “hGLP-1R EC50 (pM)” value came out at 3.9 pM.

Take HSQGS[αMeF]TSDVSK[Dip]LDSK([(PEG)2-(PEG)2-γGlu-γGlu-Dodecyl])AAQD[αMeF]VE[Aib]IINT-NH2 [Peptide 62]: the “hGluc-R EC50 (pM)” value in experiment [1] was determined as 15.2 pM. For the same molecule, in experiment [2], the “hGLP-1R EC50 (pM)” value is 10.1 pM.

On to H[Aib]QGS[αMeF]TSDVSK[Dip]LDSK([(PEG)2-(PEG)2-γGlu-Palmitoyl])AAQD[αMeF]VQ[Aib]IAN-NH2 [Peptide 67], for which the “hGluc-R EC50 (pM)” value in experiment [1] stood at 9.49 pM. In addition, in experiment [2], the “hGLP-1R EC50 (pM)” value came to 2.43 pM.

B3: Peptide 7 (peptide)
peptide: H[Aib]HGS[αMeF]TSDVSK[αMeF]LDSK([γGlu-C18 diacid])AAQD[αMeF]VEWIANT-NH2
modifications: N-terminus assumed
SMILES: CC[C@H](C)[C@H](NC(=O)[C@H](Cc1c[nH]c2ccccc12)NC(=O)[C@H](CCC(=O)O)NC(=O)[C@@H](NC(=O)[C@](C)(Cc1ccccc1)NC(=O)[C@H](CC(=O)O)NC(=O)[C@H](CCC(N)=O)NC(=O)[C@H](C)NC(=O)[C@H](C)NC(=O)[C@H](CCCCNC(=O)CC[C@H](NC(=O)CCCCCCCCCCCCCCCCC(=O)O)C(=O)O)NC(=O)[C@H](CO)NC(=O)[C@H](CC(=O)O)NC(=O)[C@H](CC(C)C)NC(=O)[C@](C)(Cc1ccccc1)NC(=O)[C@H](CCCCN)NC(=O)[C@H](CO)NC(=O)[C@@H](NC(=O)[C@H](CC(=O)O)NC(=O)[C@H](CO)NC(=O)[C@@H](NC(=O)[C@](C)(Cc1ccccc1)NC(=O)[C@H](CO)NC(=O)CNC(=O)[C@H](Cc1c[nH]cn1)NC(=O)C(C)(C)NC(=O)[C@@H](N)Cc1c[nH]cn1)[C@@H](C)O)C(C)C)C(C)C)C(=O)N[C@@H](C)C(=O)N[C@@H](CC(N)=O)C(=O)N[C@H](C(N)=O)[C@@H](C)O
Regarding B3, in experiment [1], the “hGluc-R EC50 (pM)” value was 30.7 pM. In experiment [2], the “hGLP-1R EC50 (pM)” value came to 84.6 pM.

Take HSQGS[αMeF]TSDVSK[Dip]LDSK([(PEG)2-γGlu-(PEG)2-γGlu-Stearoyl])AAQD[αMeF]VE[Aib]IINT-NH2 [Peptide 61]: the “hGluc-R EC50 (pM)” value in experiment [1] was 9.55 pM. For the same molecule, the “hGLP-1R EC50 (pM)” value in experiment [2] was 4.12 pM.

As for HSQGS[αMeF]TSDVSK[αMeF]LDSKAAQD[αMeF]VQ[Aib]LEAGG-NH2 (not fully specified (residue 17)) [Peptide 80], the “hGluc-R EC50 (pM)” value in experiment [1] was determined as 9.18 pM. The “hGLP-1R EC50 (pM)” value in experiment [2] stood at 1.03 pM.

As to HSQGS[αMeF]TSDVSK[Dip]LDSK([γGlu-γGlu-(PEG)2-(PEG)2-Stearoyl])AAQD[αMeF]VE[Aib]IINT-NH2 [Peptide 59], the “hGluc-R EC50 (pM)” value in experiment [1] was determined as 28.4 pM. Besides, the “hGLP-1R EC50 (pM)” value in experiment [2] was determined as 6.18 pM.

B4: Peptide 57 (peptide)
peptide: HSQGS[αMeF]TSDVSK[Dip]LDSK([PEG8-γGlu-γGlu-Stearoyl])AAQD[αMeF]VE[Aib]IINT-NH2
modifications: N-terminus assumed
SMILES: CCCCCCCCCCCCCCCCCC(=O)N[C@@H](CCC(=O)N[C@@H](CCC(=O)NCCOCCOCCOCCOCCOCCOCCOCCOCCC(=O)NCCCC[C@H](NC(=O)[C@H](CO)NC(=O)[C@H](CC(=O)O)NC(=O)[C@H](CC(C)C)NC(=O)[C@@H](NC(=O)[C@H](CCCCN)NC(=O)[C@H](CO)NC(=O)[C@@H](NC(=O)[C@H](CC(=O)O)NC(=O)[C@H](CO)NC(=O)[C@@H](NC(=O)[C@](C)(Cc1ccccc1)NC(=O)[C@H](CO)NC(=O)CNC(=O)[C@H](CCC(N)=O)NC(=O)[C@H](CO)NC(=O)[C@@H](N)Cc1c[nH]cn1)[C@@H](C)O)C(C)C)C(c1ccccc1)c1ccccc1)C(=O)N[C@@H](C)C(=O)N[C@@H](C)C(=O)N[C@@H](CCC(N)=O)C(=O)N[C@@H](CC(=O)O)C(=O)N[C@@](C)(Cc1ccccc1)C(=O)N[C@H](C(=O)N[C@@H](CCC(=O)O)C(=O)NC(C)(C)C(=O)N[C@H](C(=O)N[C@H](C(=O)N[C@@H](CC(N)=O)C(=O)N[C@H](C(N)=O)[C@@H](C)O)[C@@H](C)CC)[C@@H](C)CC)C(C)C)C(=O)O)C(=O)O
B4: the “hGluc-R EC50 (pM)” value in experiment [1] came to 16.9 pM. Further, the “hGLP-1R EC50 (pM)” value in experiment [2] stood at 9.09 pM.

Turning to HSQGS[αMeF]TSDVSK[Dip]LDSK([(PEG)2-(PEG)2-γGlu-γGlu-Palmitoyl])AAQD[αMeF]VE[Aib]IINT-NH2 [Peptide 64], in experiment [1], the “hGluc-R EC50 (pM)” value worked out at 3.06 pM. In experiment [2], the “hGLP-1R EC50 (pM)” value was found to be 2.57 pM.

For HSQGS[αMeF]TSDVSK[αMeF]LDSK([(PEG)2-(PEG)2-γGlu-γGlu-Palmitoyl])AAQD[αMeF]VQ[Aib]IAN-NH2 [Peptide 87], the “hGluc-R EC50 (pM)” value in experiment [1] was 8.46 pM. In addition, in experiment [2], the “hGLP-1R EC50 (pM)” value came to 1.29 pM.

As for HSQGS[αMeF]TSDVSK[Dip]LDSK([(PEG)2-(PEG)2-γGlu-γGlu-Myristyl])AAQD[αMeF]VE[Aib]IINT-NH2 [Peptide 63], in experiment [1], the “hGluc-R EC50 (pM)” value was found to be 2.49 pM. In experiment [2], the “hGLP-1R EC50 (pM)” value is 3.14 pM.

B5: Peptide 56 (peptide)
peptide: HSQGS[αMeF]TSDVSK[Dip]LDSK([PEG4-γGlu-γGlu-Stearoyl])AAQD[αMeF]VE[Aib]IINT-NH2
modifications: N-terminus assumed
SMILES: CCCCCCCCCCCCCCCCCC(=O)N[C@@H](CCC(=O)N[C@@H](CCC(=O)NCCOCCOCCOCCOCCC(=O)NCCCC[C@H](NC(=O)[C@H](CO)NC(=O)[C@H](CC(=O)O)NC(=O)[C@H](CC(C)C)NC(=O)[C@@H](NC(=O)[C@H](CCCCN)NC(=O)[C@H](CO)NC(=O)[C@@H](NC(=O)[C@H](CC(=O)O)NC(=O)[C@H](CO)NC(=O)[C@@H](NC(=O)[C@](C)(Cc1ccccc1)NC(=O)[C@H](CO)NC(=O)CNC(=O)[C@H](CCC(N)=O)NC(=O)[C@H](CO)NC(=O)[C@@H](N)Cc1c[nH]cn1)[C@@H](C)O)C(C)C)C(c1ccccc1)c1ccccc1)C(=O)N[C@@H](C)C(=O)N[C@@H](C)C(=O)N[C@@H](CCC(N)=O)C(=O)N[C@@H](CC(=O)O)C(=O)N[C@@](C)(Cc1ccccc1)C(=O)N[C@H](C(=O)N[C@@H](CCC(=O)O)C(=O)NC(C)(C)C(=O)N[C@H](C(=O)N[C@H](C(=O)N[C@@H](CC(N)=O)C(=O)N[C@H](C(N)=O)[C@@H](C)O)[C@@H](C)CC)[C@@H](C)CC)C(C)C)C(=O)O)C(=O)O
B5: the “hGluc-R EC50 (pM)” value in experiment [1] came to 10.9 pM. Moreover, in experiment [2], the “hGLP-1R EC50 (pM)” value is 4.86 pM.

For HSQGS[αMeF]TSDVSK[Dip]LDSKAAQD[αMeF]VE[Aib]IINT-NH2 (not fully specified (residue 17)) [Peptide 65], the “hGluc-R EC50 (pM)” value in experiment [1] came out at 2060 pM. In experiment [2], the “hGLP-1R EC50 (pM)” value turned out to be 1230 pM.

Consider HSQGS[αMeF]TSDVSK[αMeF]LDSK([(PEG)2-(PEG)2-γGlu-γGlu-Palmitoyl])AAQD[αMeF]VQ[Aib]LEAGG-NH2 [Peptide 79], for which, in experiment [1], the “hGluc-R EC50 (pM)” value is 10.7 pM. In addition, the “hGLP-1R EC50 (pM)” value in experiment [2] was found to be 1.73 pM.

In the case of HSQGS[αMeF]TSDVSK[Dip]LDSK([γGlu-(PEG)2-γGlu-(PEG)2-Stearoyl])AAQD[αMeF]VE[Aib]IINT-NH2 [Peptide 60], in experiment [1], the “hGluc-R EC50 (pM)” value was 21.1 pM. For the same molecule, the “hGLP-1R EC50 (pM)” value in experiment [2] was 5.16 pM.
